{"source": "patent US20240398949A1", "about": "(OSLO UNIVERSITETSSYKEHUS HF, published 2024)", "binders": {"B1": {"name": "Oslo-2 antibody (monoclonal antibody against p95HER2) (antibody, V domains shown)", "VH": "EVQILETGGGLVKPGGSLRLSCATSGFNFNDYFMNWVRQAPGKGLEWIAQIRNKNYNYATYFAESLEGRFTISRDDSKSSVYLQVNSLRAEDTALYYCTELRYDYWGQGVMVTVSS", "VL": "DIVMTQSPFSLAVSEGEMVTINCKSSQSLLSSGNQKNNLAWYQQKPGQSPKLLIYYASTRQSGVPDRFIGSGSGTDFTLTISDVQAEDLADYYCLQHYSSPYTFGAGTKLELK", "notes": "Monoclonal antibody from a rat hybridoma (mClone 1), detected with goat anti-rat-PE; also called the antibody of interest; the antibody"}}, "key": {"[1]": {"biological_target": "T1, extracellular domain of p95HER2 peptide with a polyhistidine-tag in the C-terminus", "T1 construct": "Used as analyte in SPR", "assay": "SPR (Biacore T200, 25° C.), antibody immobilized on CM5 chip, peptide as analyte 0.6 to 2500 nM, 1:1 model", "procedure": "SPR was performed as described previously in Gomes & Andreu, Journal of Immunological Methods 259:217-230, 2002. […] The extracellular domain of p95HER2 peptide with a polyhistidine-tag in the C-terminus (SEQ ID NO: 19) was used as analyte with serial dilutions from 0.6 to 2500 nM. […] (SEQ ID NO: 19)\nKinetics of molecular interaction were processed by global curve fitting to the 1:1 bimolecular interaction model. Biacore T200 (GE Healthcare) was used to perform the experiment and all procedures were conducted at 25° C."}, "[2]": {"biological_target": "T2, peptide 31 (FIGURE 3 d/e)", "T2 construct": "marked IW under the bar", "T2 peptide": "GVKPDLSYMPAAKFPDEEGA", "assay": "peptide array on cellulose membrane, double-alanine substitution series, signal intensity (area under curve), duplicate spots"}, "[3]": {"biological_target": "T3, peptide 23 (FIGURE 3 d/e)", "T3 peptide": "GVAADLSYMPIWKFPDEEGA", "assay": "peptide array on cellulose membrane, double-alanine substitution series, signal intensity (area under curve), duplicate spots"}, "[4]": {"biological_target": "T4, peptide 32 (FIGURE 3 d/e)", "T4 construct": "marked WK under the bar", "T4 peptide": "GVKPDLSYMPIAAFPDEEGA", "assay": "peptide array on cellulose membrane, double-alanine substitution series, signal intensity (area under curve), duplicate spots"}, "[5]": {"biological_target": "T5, peptide 30 (FIGURE 3 d/e)", "T5 construct": "marked PI under the bar", "T5 peptide": "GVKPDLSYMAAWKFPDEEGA", "assay": "peptide array on cellulose membrane, double-alanine substitution series, signal intensity (area under curve), duplicate spots"}, "[6]": {"biological_target": "T6, peptide 27 (FIGURE 3 d/e)", "T6 peptide": "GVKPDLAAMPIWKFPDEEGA", "assay": "peptide array on cellulose membrane, double-alanine substitution series, signal intensity (area under curve), duplicate spots"}, "[7]": {"biological_target": "T7, peptide 34 (FIGURE 3 d/e)", "T7 construct": "marked FP under the bar", "T7 peptide": "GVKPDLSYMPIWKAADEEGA", "assay": "peptide array on cellulose membrane, double-alanine substitution series, signal intensity (area under curve), duplicate spots"}, "[8]": {"biological_target": "T8, peptide 28 (FIGURE 3 d/e)", "T8 peptide": "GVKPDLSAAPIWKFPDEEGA", "assay": "peptide array on cellulose membrane, double-alanine substitution series, signal intensity (area under curve), duplicate spots"}, "[9]": {"biological_target": "T9, peptide 39 (FIGURE 3 d/e)", "T9 peptide": "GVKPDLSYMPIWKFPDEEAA", "assay": "peptide array on cellulose membrane, double-alanine substitution series, signal intensity (area under curve), duplicate spots"}, "[10]": {"biological_target": "T10, peptide 21 (FIGURE 3 d/e)", "T10 peptide": "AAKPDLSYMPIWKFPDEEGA", "assay": "peptide array on cellulose membrane, double-alanine substitution series, signal intensity (area under curve), duplicate spots"}, "[11]": {"biological_target": "T11, peptide 25 (FIGURE 3 d/e)", "T11 peptide": "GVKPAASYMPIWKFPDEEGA", "assay": "peptide array on cellulose membrane, double-alanine substitution series, signal intensity (area under curve), duplicate spots"}, "[12]": {"biological_target": "T12, peptide 35 (FIGURE 3 d/e)", "T12 construct": "marked PD under the bar", "T12 peptide": "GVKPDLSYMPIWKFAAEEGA", "assay": "peptide array on cellulose membrane, double-alanine substitution series, signal intensity (area under curve), duplicate spots"}, "[13]": {"biological_target": "T13, peptide 22 (FIGURE 3 d/e)", "T13 peptide": "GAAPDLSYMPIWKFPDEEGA", "assay": "peptide array on cellulose membrane, double-alanine substitution series, signal intensity (area under curve), duplicate spots"}, "[14]": {"biological_target": "T14, peptide 26 (FIGURE 3 d/e)", "T14 peptide": "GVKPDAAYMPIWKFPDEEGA", "assay": "peptide array on cellulose membrane, double-alanine substitution series, signal intensity (area under curve), duplicate spots"}, "[15]": {"biological_target": "T15, Peptide 3 of Table 3 (15mer of the p95HER2 extracellular domain)", "T15 construct": "Synthetic peptide immobilized on a cellulose membrane", "T15 peptide": "EEGACQPCPINCTHS", "assay": "peptide array on cellulose membrane, overlapping 15mers, signal intensity (area under curve), triplicate spots"}, "[16]": {"biological_target": "T16, Peptide 8 of Table 3 (15mer of the p95HER2 extracellular domain)", "T16 construct": "Synthetic peptide immobilized on a cellulose membrane", "T16 peptide": "DDKGCPAEQRASPLT", "assay": "peptide array on cellulose membrane, overlapping 15mers, signal intensity (area under curve), triplicate spots"}, "[17]": {"biological_target": "T17, Peptide 1 of Table 3 (15mer of the p95HER2 extracellular domain)", "T17 construct": "Synthetic peptide immobilized on a cellulose membrane", "T17 peptide": "MPIWKFPDEEGACQP", "assay": "peptide array on cellulose membrane, overlapping 15mers, signal intensity (area under curve), triplicate spots"}, "[18]": {"biological_target": "T18, Peptide 5 of Table 3 (peptide of the p95HER2 extracellular domain)", "T18 construct": "Synthetic peptide immobilized on a cellulose membrane", "T18 peptide": "INCTHSCVDLDDKG", "assay": "peptide array on cellulose membrane, overlapping 15mers, signal intensity (area under curve), triplicate spots"}, "[19]": {"biological_target": "T19, Peptide 4 of Table 3 (15mer of the p95HER2 extracellular domain)", "T19 construct": "Synthetic peptide immobilized on a cellulose membrane", "T19 peptide": "CQPCPINCTHSCVDL", "assay": "peptide array on cellulose membrane, overlapping 15mers, signal intensity (area under curve), triplicate spots"}, "[20]": {"biological_target": "T20, Peptide 6 of Table 3 (15mer of the p95HER2 extracellular domain)", "T20 construct": "Synthetic peptide immobilized on a cellulose membrane", "T20 peptide": "THSCVDLDDKGCPAE", "assay": "peptide array on cellulose membrane, overlapping 15mers, signal intensity (area under curve), triplicate spots"}, "[21]": {"biological_target": "T21, Peptide 2 of Table 3 (15mer of the p95HER2 extracellular domain)", "T21 construct": "Synthetic peptide immobilized on a cellulose membrane; also called KFPDEEGACQPCPIN", "T21 peptide": "KFPDEEGACQPCPIN", "assay": "peptide array on cellulose membrane, overlapping 15mers, signal intensity (area under curve), triplicate spots"}, "[22]": {"biological_target": "T22, Peptide 7 of Table 3 (15mer of the p95HER2 extracellular domain)", "T22 construct": "Synthetic peptide immobilized on a cellulose membrane", "T22 peptide": "VDLDDKGCPAEQRAS", "assay": "peptide array on cellulose membrane, overlapping 15mers, signal intensity (area under curve), triplicate spots"}}, "data": [{"binder": "B1", "values": [{"measurement": "Kd", "setting": "[1]", "value": 2, "unit": "nM"}, {"measurement": "binding result", "setting": "[2]", "value": "no binding"}, {"measurement": "binding result", "setting": "[3]", "value": "binds"}, {"measurement": "binding result", "setting": "[4]", "value": "no binding"}, {"measurement": "binding result", "setting": "[5]", "value": "binds"}, {"measurement": "binding result", "setting": "[6]", "value": "binds"}, {"measurement": "binding result", "setting": "[7]", "value": "binds"}, {"measurement": "binding result", "setting": "[8]", "value": "binds"}, {"measurement": "binding result", "setting": "[9]", "value": "binds"}, {"measurement": "binding result", "setting": "[10]", "value": "binds"}, {"measurement": "binding result", "setting": "[11]", "value": "binds"}, {"measurement": "binding result", "setting": "[12]", "value": "binds"}, {"measurement": "binding result", "setting": "[13]", "value": "binds"}, {"measurement": "binding result", "setting": "[14]", "value": "binds"}, {"measurement": "binding result", "setting": "[15]", "value": "no binding"}, {"measurement": "binding result", "setting": "[16]", "value": "no binding"}, {"measurement": "binding result", "setting": "[17]", "value": "binds"}, {"measurement": "binding result", "setting": "[18]", "value": "no binding"}, {"measurement": "binding result", "setting": "[19]", "value": "no binding"}, {"measurement": "binding result", "setting": "[20]", "value": "no binding"}, {"measurement": "binding result", "setting": "[21]", "value": "no binding"}, {"measurement": "binding result", "setting": "[22]", "value": "no binding"}]}]}
